Experimental data: PMC5824745 (The Journal of Neuroscience, 2018)
Each block holds one binder with its values, some of them ahead of it.

Tests used:
[1] = molecular target: T1, eIF4E Ser209Ala (knock-in, 4Eki mice) (mouse (endogenous in forebrain), UniProt P63073 1-217, Ser209Ala); experiment: pull-down; cap-column pulldown: 500 ug forebrain lysate protein with 50 ul m7GDP agarose in buffer C (50 mM MOPS-KOH pH 7.4, 100 mM NaCl, 50 mM NaF, 0.5 mM EDTA, 0.5 mM EGTA, 0.1 mM GTP), 90 min at 4 C; eIF4E held by its ligand m7GDP; cap-bound fraction immunoblotted and quantified, normalised to input; settings: partners not purified
T1 construct: The mice are described in Gkogkas et al., 2014; also called Ser209Ala mutant; source: endogenous (knock-in allele), 4Eki mouse forebrain lysate

[2] = molecular target: T2, eukaryotic Initiation Factor 4E (eIF4E), wild type (mouse (endogenous in forebrain), UniProt P63073 1-217); experiment: as above; settings: partners not purified
T2 construct: also called WT; source: endogenous, WT mouse forebrain lysate

- cap-bound protein (arbitrary units, normalised to input) [1]: 0.775 arbitrary units
B1: Gapdh (natural protein)
chain: not shown
notes: Gapdh, mouse, endogenous in forebrain; also called GAIT complex protein; source: endogenous, mouse forebrain lysate (WT or 4Eki)

- cap-bound protein (arbitrary units, normalised to input) [2]: 1 arbitrary units
- cap-bound protein (arbitrary units, normalised to input) [1]: 0.83 arbitrary units
B2: eIF4G (natural protein, mouse (endogenous in forebrain), UniProt Q6NZJ6 1-1600, looked up)
chain: MNKAPQPTGPPPARSPGLPQPAFPPGQTAPVVFSTPQATQMNTPSQPRQGGFRSLQHFYPSRAQPPSSAASRVQSAAPARPGPAPHVYPAGSQVMMIPSQISYSASQGAYYIPGQGRSTYVVPTQQYPVQPGAPGFYPGASPTEFGTYAGAYYPAQGVQQFPASVAPAPVLMNQPPQIAPKRERKTIRIRDPNQGGKDITEEIMSGARTASTPTPPQTGGSLEPQPNGESPQVAVIIRPDDRSQGAAIGGRPGLPGPEHSPGTESQPSSPSPTPSPPPILEPGSESNLGVLSIPGDTMTTGMIPMSVEESTPISCETGEPYCLSPEPTLAEPILEVEVTLSKPIPESEFSSSPLQVSTALVPHKVETHEPNGVIPSEDLEPEVESSTEPAPPPLSPCASESLVPIAPTAQPEELLNGAPSPPAVDLSPVSEPEEQAKKVSSAALASILSPAPPVAPSDTSPAQEEEMEEDDDDEEGGEAESEKGGEDVPLDSTPVPAQLSQNLEVAAATQVAVSVPKRRRKIKELNKKEAVGDLLDAFKEVDPAVPEVENQPPTGSNPSPESEGSMVPTQPEETEETWDSKEDKIHNAENIQPGEQKYEYKSDQWKPLNLEEKKRYDREFLLGFQFIFASMQKPEGLPHITDVVLDKANKTPLRQLDPSRLPGINCGPDFTPSFANLGRPALSNRGPPRGGPGGELPRGPAGLGPRRSQQGPRKETRKIISSVIMTEDIKLNKAEKAWKPSSKRTAADKDRGEEDADGSKTQDLFRRVRSILNKLTPQMFQQLMKQVTQLAIDTEERLKGVIDLIFEKAISEPNFSVAYANMCRCLMALKVPTTEKPTVTVNFRKLLLNRCQKEFEKDKDDDEVFEKKQKEMDEAATAEERGRLKEELEEARDIARRRSLGNIKFIGELFKLKMLTEAIMHDCVVKLLKNHDEESLECLCRLLTTIGKDLDFAKAKPRMDQYFNQMEKIIKEKKTSSRIRFMLQDVLDLRQSNWVPRRGDQGPKTIDQIHKEAEMEEHREHIKVQQLMAKGSDKRRGGPPGPPINRGLPLVDDGGWNTVPISKGSRPIDTSRLTKITKPGSIDSNNQLFAPGGRLSWGKGSSGGSGAKPSDTASEATRPATLNRFSALQQTLPAENTDNRRVVQRSSLSRERGEKAGDRGDRLERSERGGDRGDRLDRARTPATKRSFSKEVEERSRERPSQPEGLRKAASLTEDRGRDPVKREATLPPVSPPKAALSVDEVEKKSKAIIEEYLHLNDMKEAVQCVQELASPSLLFIFVRLGIESTLERSTIAREHMGRLLHQLLCAGHLSTAQYYQGLYETLELAEDMEIDIPHVWLYLAELITPILQEDGVPMGELFREITKPLRPMGKATSLLLEILGLLCKSMGPKKVGMLWREAGLSWREFLAEGQDVGSFVAEKKVEYTLGEESEAPGQRTLAFEELRRQLEKLLKDGGSNQRVFDWIDANLNEQQIASNTLVRALMTTVCYSAIIFETPLRVDVQVLKVRARLLQKYLCDEQKELQALYALQALVVTLEQPANLLRMFFDALYDEDVVKEDAFYSWESSKDPAEQQGKGVALKSVTAFFNWLREAEDEESDHN
notes: eIF4G, mouse, endogenous in forebrain; detected with an antibody against eIF4G1 (Cell Signaling Technology 2498); also called eIF4G1; scaffolding protein of eIF4F; source: endogenous, mouse forebrain lysate (WT or 4Eki)

- cap-bound protein (arbitrary units, normalised to input) [2]: 1 arbitrary units
B3: Eprs (natural protein, mouse (endogenous in forebrain), UniProt Q8CGC7 1-1512, looked up)
chain: MAALCLTVNAGNPPLEALLAVEHVKGDVSISVEEGKENLLRVSETVAFTDVNSILRYLARIATTSGLYGTNLMEHTEIDHWLEFSATKLSSCDRLTSAINELNHCLSLRTYLVGNSLTLADLCVWATLKGSAAWQEHLKQNKTLVHVKRWFGFLEAQQAFRSVGTKWDVSGNRATVAPDKKQDVGKFVELPGAEMGKVTVRFPPEASGYLHIGHAKAALLNQHYQVNFKGKLIMRFDDTNPEKEKEDFEKVILEDVAMLHIKPDQFTYTSDHFETIMKYAEKLIQEGKAYVDDTPAEQMKAEREQRTESKHRKNSVEKNLQMWEEMKKGSQFGQSCCLRAKIDMSSNNGCMRDPTLYRCKIQPHPRTGNKYNVYPTYDFACPIVDSIEGVTHALRTTEYHDRDEQFYWIIEALGIRKPYIWEYSRLNLNNTVLSKRKLTWFVNEGLVDGWDDPRFPTVRGVLRRGMTVEGLKQFIAAQGSSRSVVNMEWDKIWAFNKKVIDPVAPRYVALLKKEVVPVNVLDAQEEMKEVARHPKNPDVGLKPVWYSPKVFIEGADAETFSEGEMVTFINWGNINITKIHKNADGKITSLDAKLNLENKDYKKTTKITWLAESTHALSIPAVCVTYEHLITKPVLGKDEDFKQYINKDSKHEELMLGDPCLKDLKKGDIIQLQRRGFFICDQPYEPVSPYSCREAPCILIYIPDGHTKEMPTSGSKEKTKVEISKKETSSAPKERPAPAVSSTCATAEDSSVLYSRVAVQGDVVRELKAKKAPKEDIDAAVKQLLTLKAEYKEKTGQEYKPGNPSAAAVQTVSTKSSSNTVESTSLYNKVAAQGEVVRKLKAEKAPKAKVTEAVECLLSLKAEYKEKTGKDYVPGQPPASQNSHSNPVSNAQPAGAEKPEAKVLFDRVACQGEVVRKLKAEKASKDQVDSAVQELLQLKAQYKSLTGIEYKPVSATGAEDKDKKKKEKENKSEKQNKPQKQNDGQGKDSSKSQGSGLSSGGAGEGQGPKKQTRLGLEAKKEENLAEWYSQVITKSEMIEYYDVSGCYILRPWSYSIWESIKDFFDAEIKKLGVENCYFPIFVSQAALEKEKNHIEDFAPEVAWVTRSGKTELAEPIAIRPTSETVMYPAYAKWVQSHRDLPVRLNQWCNVVRWEFKHPQPFLRTREFLWQEGHSAFATFEEAADEVLQILELYARVYEELLAIPVVRGRKTEKEKFAGGDYTTTIEAFISASGRAIQGATSHHLGQNFSKMCEIVFEDPKTPGEKQFAYQCSWGLTTRTIGVMVMVHGDNMGLVLPPRVASVQVVVIPCGITNALSEEDREALMAKCNEYRRRLLGANIRVRVDLRDNYSPGWKFNHWELKGVPVRLEVGPRDMKSCQFVAVRRDTGEKLTIAEKEAEAKLEKVLEDIQLNLFTRASEDLKTHMVVSNTLEDFQKVLDAGKVAQIPFCGEIDCEDWIKKMTARDQDVEPGAPSMGAKSLCIPFNPLCELQPGAMCVCGKNPAKFYTLFGRSY
notes: Eprs (glutamyl-prolyl-tRNA synthetase), mouse, endogenous in forebrain; also called GAIT complex protein; source: endogenous, mouse forebrain lysate (WT or 4Eki)
